The target in experiment [1] is full length recombinant alpha synuclein (UniProt P37840 1-140). Briefly: ELISA; synthetic peptides (5 µg/mL in PBS, 10 mM EDTA) coupled through cysteine to maleimide-activated microplate wells, blocked with L-cysteine; 0.1 µg/mL recombinant protein added 1 h at 37 °C; biotinylated detection antibody, streptavidin-HRP, TMB, absorbance at 450 nm. The conditions noted are these: both partners purified.

The target of experiment [2] is T1, full length recombinant TDP-43 (UniProt Q13148 1-414).
T1 construct: Called monomeric in the conventional ELISA; also called full-length TDP-43; source: recombinant
T1 sequence (Q13148 whole entry): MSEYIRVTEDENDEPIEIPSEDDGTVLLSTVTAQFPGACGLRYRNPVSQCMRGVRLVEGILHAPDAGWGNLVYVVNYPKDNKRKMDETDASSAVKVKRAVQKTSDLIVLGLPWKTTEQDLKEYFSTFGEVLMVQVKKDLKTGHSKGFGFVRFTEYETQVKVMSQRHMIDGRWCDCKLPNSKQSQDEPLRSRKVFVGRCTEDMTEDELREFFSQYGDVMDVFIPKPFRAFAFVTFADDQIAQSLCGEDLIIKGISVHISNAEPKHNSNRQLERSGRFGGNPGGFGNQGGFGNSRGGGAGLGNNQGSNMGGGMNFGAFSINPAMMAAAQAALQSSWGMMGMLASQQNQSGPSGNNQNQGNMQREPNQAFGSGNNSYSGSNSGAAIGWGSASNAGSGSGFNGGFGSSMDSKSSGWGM
The experiment is described as above. As to conditions: both partners purified.

B1: TDP-43 peptide 17 (aa 310–329) (peptide)
peptide: GMNFGAFSINPAMMAAAQAA
notes: That this stretch has no internal cysteine is my surmise; source: synthetic peptide (Lugen Sci Co., Ltd.)
As for B1, the binding result in experiment [1] was “binds”.

B2: α-synuclein peptide, amino acids 61–76 (peptide, UniProt P37840 61-76, looked up)
peptide: EQVTNVGGAVVTGVTA
notes: alpha synuclein residues 61-76, start of the non-amyloid β component (NAC); also called first 16 residues of the NAC; first 15 residues of the NAC region; source: synthetic peptide (Lugen Sci Co., Ltd.)
For the molecule B2, the binding result in experiment [2] is “binds”.

B3: TDP-43 overlapping peptide aa 305–323 (peptide)
peptide: SNMGGGMNFGAFSINPAMM
notes: source: synthetic peptide (Lugen Sci Co., Ltd.)
With B3, in experiment [1], the binding result is on record as “binds”.

Source of the values: article PMC8836581, “A Microplate-Based Approach to Map Interactions between TDP-43 and α-Synuclein” (Journal of Clinical Medicine, 2022).
